Source: paper PMC6325117, “Highly modified and immunoactive N-glycans of the canine heartworm” (Nature Communications, 2019)

Biological target: T1, human complement component C1q (human, UniProt P02745 23-245; P02746 28-253; P02747 29-245)
T1 construct: complement C1q subcomponent subunit A, human; complement C1q subcomponent subunit B, human; complement C1q subcomponent subunit C, human; Detected with fluorescent anti-C1q; also called complement C1q; source: bought: Sigma (C1740); copies: + +
Assay: glycan array; AEAB-labelled D. immitis neutral N-glycan pool printed on NHS-modified glass slides; incubated first with human CRP (5 µg/ml), then serially with C1q and fluorescent anti-C1q; fluorescence read-out, mean of 10 spots
Details: both partners purified

T1 sequence (P02745 23-245, chain 1 of 3): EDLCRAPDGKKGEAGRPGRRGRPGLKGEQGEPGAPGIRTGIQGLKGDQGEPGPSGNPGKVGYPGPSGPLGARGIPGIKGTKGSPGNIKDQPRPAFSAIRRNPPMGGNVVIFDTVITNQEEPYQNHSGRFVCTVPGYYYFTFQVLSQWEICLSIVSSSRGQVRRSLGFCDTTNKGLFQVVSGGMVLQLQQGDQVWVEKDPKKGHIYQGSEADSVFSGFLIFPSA
T1 sequence (P02746 28-253, chain 2 of 3): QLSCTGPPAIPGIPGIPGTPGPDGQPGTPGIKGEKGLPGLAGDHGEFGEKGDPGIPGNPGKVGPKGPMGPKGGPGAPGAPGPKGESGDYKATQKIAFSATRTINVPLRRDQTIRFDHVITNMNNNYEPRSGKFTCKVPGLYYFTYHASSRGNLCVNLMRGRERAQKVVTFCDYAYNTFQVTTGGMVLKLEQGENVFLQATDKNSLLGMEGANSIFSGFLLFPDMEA
T1 sequence (P02747 29-245, chain 3 of 3): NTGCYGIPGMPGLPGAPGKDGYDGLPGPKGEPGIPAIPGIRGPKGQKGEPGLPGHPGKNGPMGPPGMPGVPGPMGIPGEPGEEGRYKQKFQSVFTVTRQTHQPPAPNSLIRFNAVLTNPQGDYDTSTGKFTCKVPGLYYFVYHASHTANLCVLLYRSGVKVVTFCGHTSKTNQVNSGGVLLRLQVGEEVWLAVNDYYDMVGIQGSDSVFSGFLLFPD

B1: natural human C-reactive protein (natural protein, UniProt P02741 19-224, looked up)
chain: QTDMSRKAFVFPKESDTSYVSLKAPLTKPLKAFTVCLHFYTELSSTRGYSIFSYATKRQDNEILIFWSKDIGYSFTVGGSEILFEVPEVTVAPVHICTSWESASGIVEFWVDGKPRVRKSLKKGYTVGAEASIILGQEQDSFGGNFEGSQSLVGDIGNVNMWDFVLSPDEINTIYLGGPFSPNVLNWRALKYEVQGEVFTKPQLWP
notes: C-reactive protein, human, natural; called pentameric in the discussion; also called CRP; human pentraxin C-reactive protein; source: bought: MPBio (215231505)
- binding result: binds
